These results are taken from PMC7661517.

This assay addresses hen egg white lysozyme (chicken) (UniProt P00698). Description: SPR; lysozyme immobilised on a CM5 chip by amine coupling (200 RU); Affitins injected at 15.6-500 nM; 25 °C; HBSEP pH 7.4 (10 mM Hepes, 150 mM NaCl, 2 mM EDTA, 0.05% P20); association 2 min, dissociation 7 min; apparent. (SPR reads the build-up and loss of mass on a sensor chip optically.)
Chain of UniProt P00698 (P00698 19-147): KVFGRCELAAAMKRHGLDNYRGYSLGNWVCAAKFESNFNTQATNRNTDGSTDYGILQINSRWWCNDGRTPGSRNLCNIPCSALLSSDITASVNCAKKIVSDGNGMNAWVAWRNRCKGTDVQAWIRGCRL
“Affitin H4 mutant M3 (L54I-L55V-L58I) (designed binder)”: the Kd was determined as 7.5 nM.
Take “Affitin H4 mutant M2 (L31I-F32W) (designed binder)”: the Kd stood at 440 nM.
As to “Affitin H4 mutant M1 (F6W-F7I) (designed binder)”, the Kd stood at 3.98 nM.
